Experiments:
[1] = target: T1, HspB6-meGFP-His6 (human), O14558; test: microfluidic diffusional sizing; conditions: remark: other sources report otherwise
T1 chain: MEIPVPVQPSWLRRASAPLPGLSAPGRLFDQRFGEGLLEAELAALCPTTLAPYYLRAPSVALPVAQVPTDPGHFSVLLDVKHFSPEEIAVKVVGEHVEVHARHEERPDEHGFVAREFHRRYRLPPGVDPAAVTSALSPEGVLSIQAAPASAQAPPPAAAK

[2] = target: the molecule itself; test: microfluidic diffusional sizing
[3] = target: T2, FUS-mscarlet3, released from MBP-FUS-mscarlet3-His6 by TEV protease (UniProt P35637 1-526); test: fluorescence polarisation
T2 sequence: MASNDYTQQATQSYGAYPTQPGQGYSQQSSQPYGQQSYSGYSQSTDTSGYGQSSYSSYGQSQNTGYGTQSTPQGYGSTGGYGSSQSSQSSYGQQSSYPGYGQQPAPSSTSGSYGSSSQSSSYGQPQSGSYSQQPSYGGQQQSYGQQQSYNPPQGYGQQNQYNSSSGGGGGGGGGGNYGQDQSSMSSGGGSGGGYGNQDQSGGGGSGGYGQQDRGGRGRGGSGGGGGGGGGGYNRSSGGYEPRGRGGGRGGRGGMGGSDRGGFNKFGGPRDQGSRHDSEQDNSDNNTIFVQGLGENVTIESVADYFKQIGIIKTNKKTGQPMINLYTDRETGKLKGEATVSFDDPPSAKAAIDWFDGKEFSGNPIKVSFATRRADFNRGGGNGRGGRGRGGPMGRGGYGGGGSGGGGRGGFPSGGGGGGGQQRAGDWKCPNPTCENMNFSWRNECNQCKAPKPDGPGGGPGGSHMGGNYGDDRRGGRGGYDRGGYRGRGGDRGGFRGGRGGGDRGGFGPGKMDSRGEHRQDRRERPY

B1: HspB6-meGFP-His6, O14558 1-160 (natural protein)
chain: MEIPVPVQPSWLRRASAPLPGLSAPGRLFDQRFGEGLLEAELAALCPTTLAPYYLRAPSVALPVAQVPTDPGHFSVLLDVKHFSPEEIAVKVVGEHVEVHARHEERPDEHGFVAREFHRRYRLPPGVDPAAVTSALSPEGVLSIQAAPASAQAPPPAAAK
stoichiometry N [1]: 2

B2: HspB5-meGFP-His6 (natural protein)
chain: MDIAIHHPWIRRPFFPFHSPSRLFDQFFGEHLLESDLFPTSTSLSPFYLRPPSFLRAPSWFDTGLSEMRLEKDRFSVNLDVKHFSPEELKVKVLGDVIEVHGKHEERQDEHGFISREFHRKYRIPADVDPLTITSSLSSDGVLTVNGPRKQVSGPERTIPITREEKPAVTAAPKK
binding result [2]: binds

B3: HspB4-meGFP-His6 (natural protein)
chain: MDVTIQHPWFKRTLGPFYPSRLFDQFFGEGLFEYDLLPFLSSTISPYYRQSLFRTVLDSGISEVRSDRDKFVIFLDVKHFSPEDLTVKVQDDFVEIHGKHNERQDDHGYISREFHRRYRLPSNVDQSALSCSLSADGMLTFCGPKIQTGLDATHAERAIPVSREEKPTSAPSS
binding result [3]: binds
